Legend:
[1] = target: T1, FZD7 receptor expressed on cells (full-length) (UniProt O75084 33-574, limits assumed); assay: flow cytometry, 200 nM Fab, FZD7 over-expression line (MDA MB 231) [cont'd]
T1 construct: whole, on cells; MDA MB 231 cells may carry other Frizzled receptors too; also called full-length FZD7 receptor; endogenous receptor on MDA MB 231 cells
Protocol: (§1) FIG. 3 is a table depicting the binding of the purified Fabs to cells expressing FZD7 (flow cytometry). Small scale Fabs were assayed for binding to full-length FZD7 receptor to an over-expression line in MDA MB 231 cells. In parallel, Fabs were assayed for binding to endogenous receptor expressed on the MDA MB 231 cells. Cells were harvested using an EDTA solution, blocked in 2% FBS/PBS (stain buffer), and stained with 200 nM Fab for 30 min on ice. Cells were washed two times with stain buffer and incubated with anti-F(ab′)₂-APC secondary antibody (Jackson Immuno) at 1:1000 for 15 minutes on ice. All antibodies were diluted in stain buffer. Cells were washed three times with stain buffer and then fixed with 1% paraformaldehye for analysis by flow cytometry. […] The percent of the cell population within the positive gates is indicated.

[2] = target: T1, FZD7 receptor expressed on cells …; assay: flow cytometry, 200 nM Fab, MDA MB 231 [cont'd]
Protocol: as §1

[3] = target: T2, recombinant Frizzled receptor 7 (FZD7) cysteine-rich domain (CRD) fused to the Fc region of human IgG (human, UniProt O75084 33-185); assay: ELISA, 10ug/ml (200nM) Fab [cont'd]
Protocol: (§2) FIG. 2B is a table depicting the binding of purified Fabs to purified FZD7-Fc measured by ELISA. Fabs purified from 25 ml bacterial cultures were assayed for binding to FZD7-Fc fusion protein (R&D systems) and Fc protein. ELISA plates (384 well) were coated with 2 ug/ml of protein in PBS overnight at four degrees. Wells were blocked with 0.5% BSA/PBS for 1 hour at room temperature, washed three times with 0.05% Tween20/PBS (wash buffer), and then primary dilutions of Fabs in 0.5% BSA/0.05% Tween20/PBS (dilution buffer) were added at indicated concentrations. Fabs were incubated for 1 hour at room temperature, wells were washed six times, and anti-FLAG-HRP (Sigma) was added at 1:5000 in dilution buffer. Secondary antibody was incubated for 45 minutes at room temperature, and wells were washed six times and developed with TMB substrate with an acid stop. The absorbance at 450 nm was read. n.t.=not tested.

[4] = target: T3, Fc control protein; assay: ELISA, 10ug/ml (200nM) Fab [cont'd]
T3 construct: also called Fc protein; control Fc protein
Protocol: as §2

[5] = target: T2, recombinant Frizzled receptor 7 (FZD7) …; assay: ELISA, 1ug/ml (20nM) Fab [cont'd]
Protocol: as §2

[6] = target: T3, Fc control protein; assay: ELISA, 1ug/ml (20nM) Fab [cont'd]
Protocol: as §2

Row | Binder | % population within the positive gate [1] [%] | % population within the positive gate [2] [%] | OD 450 [3] | OD 450 [4] | OD 450 [5] | OD 450 [6]
1 | E9 (Fab, selection round 3; also called Fzd7-R3-E9) light: DIQMTQSPSSLSASVGDRVTITCRASQSVSSAVAWYQQKPGKAPKLLIYSASSLYSGVPSRFSGSRSGTDFTLTISSLQPEDFATYYCQQAVYHALITFGQGTKVEIKRTVAAPSVFIFPPSDSQLKSGTASVVCLLNNFYPREAKVQWKVDNALQSGNSQESVTEQDSKDSTYSLSSTLTLSKADYEKHKVYACEVTHQGLSSPVTKSFNRGECGGS heavy: EVQLVESGGGLVQPGGSLRLSCAASGFNIYYSSMHWVRQAPGKGLEWVASISSYSSSTYYADSVKGRFTISADTSKNTAYLQMNSLRAEDTAVYYCARSAVVHYPAGYWVYWGWYAFDYWGQGTLVTVSSASTKGPSVFPLAPSSKSTSGGTAALGCLVKDYFPEPVTVSWNSGALTSGVHTFPAVLQSSGLYSLSSVVTVPSSSLGTQTYICNVNHKPSNTKVDKKVEPKSC | 87.1 | 96.6 | 3.2 | 0.1 | 3.09 | 0.07
2 | G9 (Fab, selection round 3; also called Fzd7-R3-G9) light: DIQMTQSPSSLSASVGDRVTITCRASQSVSSAVAWYQQKPGKAPKLLIYSASSLYSGVPSRFSGSRSGTDFTLTISSLQPEDFATYYCQQYYYSSPITFGQGTKVEIKRTVAAPSVFIFPPSDSQLKSGTASVVCLLNNFYPREAKVQWKVDNALQSGNSQESVTEQDSKDSTYSLSSTLTLSKADYEKHKVYACEVTHQGLSSPVTKSFNRGECGGS heavy: EVQLVESGGGLVQPGGSLRLSCAASGFNISYYYIHWVRQAPGKGLEWVAYISPSSGYTSYADSVKGRFTISADTSKNTAYLQMNSLRAEDTAVYYCARGYPVYSWVWSFGAFDYWGQGTLVTVSSASTKGPSVFPLAPSSKSTSGGTAALGCLVKDYFPEPVTVSWNSGALTSGVHTFPAVLQSSGLYSLSSVVTVPSSSLGTQTYICNVNHKPSNTKVDKKVEPKSC | 84.7 | 6.1 | 3.21 | 0.16 | 3.12 | 0.06
3 | G7 (Fab, selection round 3; also called Fzd7-R3-G7) light: DIQMTQSPSSLSASVGDRVTITCRASQSVSSAVAWYQQKPGKAPKLLIYSASSLYSGVPSRFSGSRSGTDFTLTISSLQPEDFATYYCQQYGYWWVSLFTFGQGTKVEIKRTVAAPSVFIFPPSDSQLKSGTASVVCLLNNFYPREAKVQWKVDNALQSGNSQESVTEQDSKDSTYSLSSTLTLSKADYEKHKVYACEVTHQGLSSPVTKSFNRGECGGS heavy: EVQLVESGGGLVQPGGSLRLSCAASGFNLYYYSIHWVRQAPGKGLEWVASIYSYSSYTYYADSVKGRFTISADTSKNTAYLQMNSLRAEDTAVYYCARWWPGHYSGYGSGALDYWGQGTLVTVSSASTKGPSVFPLAPSSKSTSGGTAALGCLVKDYFPEPVTVSWNSGALTSGVHTFPAVLQSSGLYSLSSVVTVPSSSLGTQTYICNVNHKPSNTKVDKKVEPKSC | 84.2 | 15.3 | 2.98 | 0.13 | 1.9 | 0.06
4 | B9 (Fab, selection round 3; also called Fzd7-R3-B9) light: DIQMTQSPSSLSASVGDRVTITCRASQSVSSAVAWYQQKPGKAPKLLIYSASSLYSGVPSRFSGSRSGTDFTLTISSLQPEDFATYYCQQWWASGVGPFTFGQGTKVEIKRTVAAPSVFIFPPSDSQLKSGTASVVCLLNNFYPREAKVQWKVDNALQSGNSQESVTEQDSKDSTYSLSSTLTLSKADYEKHKVYACEVTHQGLSSPVTKSFNRGECGGS heavy: EVQLVESGGGLVQPGGSLRLSCAASGFNLYSSSIHWVRQAPGKGLEWVAYISSYYSSTYYADSVKGRFTISADTSKNTAYLQMNSLRAEDTAVYYCARPAMDYWGQGTLVTVSSASTKGPSVFPLAPSSKSTSGGTAALGCLVKDYFPEPVTVSWNSGALTSGVHTFPAVLQSSGLYSLSSVVTVPSSSLGTQTYICNVNHKPSNTKVDKKVEPKSC | 91.5 | 46.7 | 3.26 | 0.06 | 3.22 | 0.05
5 | B10 (Fab, selection round 3; also called Fzd7-R3-B10) light: DIQMTQSPSSLSASVGDRVTITCRASQSVSSAVAWYQQKPGKAPKLLIYSASSLYSGVPSRFSGSRSGTDFTLTISSLQPEDFATYYCQQYWASLITFGQGTKVEIKRTVAAPSVFIFPPSDSQLKSGTASVVCLLNNFYPREAKVQWKVDNALQSGNSQESVTEQDSKDSTYSLSSTLTLSKADYEKHKVYACEVTHQGLSSPVTKSFNRGECGGS heavy: EVQLVESGGGLVQPGGSLRLSCAASGFNISYYYIHWVRQAPGKGLEWVAYISPYYGSTYYADSVKGRFTISADTSKNTAYLQMNSLRAEDTAVYYCARSWSYSYYYSHPGWSPVWAMDYWGQGTLVTVSSASTKGPSVFPLAPSSKSTSGGTAALGCLVKDYFPEPVTVSWNSGALTSGVHTFPAVLQSSGLYSLSSVVTVPSSSLGTQTYICNVNHKPSNTKVDKKVEPKSC | 93.7 | 98.2 | 3.24 | 0.06 | 3.22 | 0.06
6 | B2 (Fab, selection round 3; also called Fzd7-R3-B2) light: DIQMTQSPSSLSASVGDRVTITCRASQSVSSAVAWYQQKPGKAPKLLIYSASSLYSGVPSRFSGSRSGTDFTLTISSLQPEDFATYYCQQSSYSLITFGQGTKVEIKRTVAAPSVFIFPPSDSQLKSGTASVVCLLNNFYPREAKVQWKVDNALQSGNSQESVTEQDSKDSTYSLSSTLTLSKADYEKHKVYACEVTHQGLSSPVTKSFNRGECGGS heavy: EVQLVESGGGLVQPGGSLRLSCAASGFNLSYSYMHWVRQAPGKGLEWVASIYSSYGYTSYADSVKGRFTISADTSKNTAYLQMNSLRAEDTAVYYCARYYGWAYYYSYFPAWAGGGIDYWGQGTLVTVSSASTKGPSVFPLAPSSKSTSGGTAALGCLVKDYFPEPVTVSWNSGALTSGVHTFPAVLQSSGLYSLSSVVTVPSSSLGTQTYICNVNHKPSNTKVDKKVEPKSC | 86.2 | 15.9 | 3.18 | 0.1 | 2.92 | 0.06
7 | D9 (Fab, selection round 3; also called Fzd7-R3-D9) light: DIQMTQSPSSLSASVGDRVTITCRASQSVSSAVAWYQQKPGKAPKLLIYSASSLYSGVPSRFSGSRSGTDFTLTISSLQPEDFATYYCQQSSYSLITFGQGTKVEIKRTVAAPSVFIFPPSDSQLKSGTASVVCLLNNFYPREAKVQWKVDNALQSGNSQESVTEQDSKDSTYSLSSTLTLSKADYEKHKVYACEVTHQGLSSPVTKSFNRGECGGS heavy: EVQLVESGGGLVQPGGSLRLSCAASGFNLSYSSMHWVRQAPGKGLEWVASIYSSYSSTSYADSVKGRFTISADTSKNTAYLQMNSLRAEDTAVYYCARGAGYYWWHYYYVHGAMDYWGQGTLVTVSSASTKGPSVFPLAPSSKSTSGGTAALGCLVKDYFPEPVTVSWNSGALTSGVHTFPAVLQSSGLYSLSSVVTVPSSSLGTQTYICNVNHKPSNTKVDKKVEPKSC | 80.9 | 0.7 | 3.12 | 0.09 | 3.05 | 0.06
